Results on two molecules are retold here after patent publication US20090089899A1, “Method for Enhancing Drought Stress Tolerance in Plants by Active AREB1” (priority 2005, published 2009).

Test [1] concerns RD29B gene. The test is described as follows: RNA gel blot (Northern) analysis of downstream gene RD29B in transformed plants. Format: in vivo, Arabidopsis thaliana. Here is the method:
Extraction of total RNA from plant bodies and RNA gel blot analysis using the total RNA were performed according to the method of Satoh et al (2004, Plant Cell Physiol. 45, 309-317) using a Shakemaster crusher (Bio Medical Science, Tokyo, Japan). Furthermore, probes for RNA gel blot analysis were prepared according to the method of Maruyama et al (2004, Plant J. 38, 982-993).
To prepare a pBE2113Not-AREB1 plasmid, the entire coding region of AREB1 was amplified by PCR using a primer with a Not I linker and then the resultant was introduced into pBE2113Not (Liu et al., 1998, Plant Cell 10, 1391-1406) in the sense orientation. pBE2113Not-AREB1ΔQT was prepared by amplifying the coding region of AREB1ΔQT by PCR using primers with Xba I and BamH I linkers and then introducing the resultant into the Xba I/BamH I site of pBE2113Not in the sense orientation.
To produce transformed plants with 35S-AREB1 and 35S-AREB1ΔQT, transformation vectors, pBE2113Not-AREB1 and pBE2113Not-AREB1ΔQT, were introduced into Arabidopsis thaliana (Columbia) by a suction-infiltration method (Osakabe et al., 2005, Plant Cell 17, 1105-1119) using the Agrobacterium tumefaciens C58 strain.
Here, it was examined whether or not overexpression of ABRE1ΔQT in Arabidopsis thaliana would activate the transcription of a downstream gene such as RD29B in the absence of external ABA. […]

In test [2] the test system is RD29B-GUS reporter gene. In words: Transient expression (transactivation) analysis with RD29B-GUS reporter in protoplasts of Arabidopsis thaliana T87 cells. Format: cell-based. The note with it: in the presence of 50 μM abscisic acid (ABA). The protocol: Analysis of transient expression was performed using protoplasts derived from Arabidopsis thaliana T87 cells according to a slightly modified version of the method of Fujita et al (2004, Plant J. 39, 863-876) and the method of Satoh et al (2004, Plant Cell Physiol. 45, 309-317). Protoplast isolation and gene introduction were all performed at room temperature (25° C. to 28° C.). Protoplasts in which the gene had been introduced were allowed to stand for 16 to 20 hours at 22° C. in the dark. An enzyme solution [0.4 M mannitol, 1.5% (w/v) cellulase “Onozuka” R-10 (Yakult, Tokyo, Japan), 0.3% (w/v) macerozyme R-10 (Yakult), 0.1% (w/v) bovine serum albumin, 10 mM CaCl2, 20 mM KCl, and 20 mM MES, pH 5.7] was prepared according to the method of Sheen (2002) (http://genetics.mgh.harvard.edu/sheenweb/).
A DNA fragment containing a portion or the whole of AREB1 cDNA was amplified by PCR and then the product was cloned into the Not I site of an expression vector pBI35SΩ (Abe et al., 1997, Plant Cell 9, 1859-1868). Thus, a plasmid having an AREB1 bZIP DNA binding domain was prepared. The plasmid was then used for an experiment for the analysis of transient expression. To remove a 640-base-pair fragment that was partially cleaved with EcoT14I from the pBI35SΩ-AREB1 plasmid, self-binding ligase reaction was performed after partial cleavage with EcoT14I. […]

Take `CC1=CC(=O)CC(C)(C)[C@@]1(O)/C=C/C(C)=C\C(=O)O` [ABA, abscisic acid, reference compound]: the “expression of the downstream gene RD29B (Northern analysis)” value in test [1] (wild-type (WT) and vector control plants, 50 μM ABA, 7 hours) is recorded as “could be confirmed only in the presence of 50 μM ABA”.

B1: full-length AREB1: full-length Arabidopsis thaliana AREB1 protein (SEQ ID NO: 2), expressed from full-length cDNA under 35S promoter (protein, listed as Arabidopsis thaliana)
chain: MDGSMNLGNEPPGDGGGGGGLTRQGSIYSLTFDEFQSSVGKDFGSMNMDELLKNIWSAEETQAMASGVVPVLGGGQEGLQLQRQGSLTLPRTLSQKTVDQVWKDLSKVGSSGVGGSNLSQVAQAQSQSQSQRQQTLGEVTLEEFLVRAGVVREEAQVAARAQIAENNKGGYFGNDANTGFSVEFQQPSPRVVAAGVMGNLGAETANSLQVQGSSLPLNVNGARTTYQQSQQQQPIMPKQPGFGYGTQMGQLNSPGIRGGGLVGLGDQSLTNNVGFVQGASAAIPGALGVGAVSPVTPLSSEGIGKSNGDSSSLSPSPYMFNGGVRGRKSGTVEKVVERRQRRMIKNRESAARSRARKQAYTVELEAEVAKLKEENDELQRKQARIMEMQKNQETEMRNLLQGGPKKKLRRTESGPW
On to B1, for which the “expression of the downstream RD29B gene (Northern analysis)” value in test [1] (2-week-old seedlings of transformed plants, in the absence of ABA) was “not observed”. In test [2], the “GUS activity (RD29B-GUS reporter)” value is listed as “significant enhancement in GUS activity”.
